# Legend:
# [1] = assay type: in vivo; conditions: for increase in Vd when co-infused with heparin: 5 μg protein in 5 μl, 0.2 μl/min, with heparin (18 μg) vs infused alone; for Vd/Vi ratio: low volume (5 μl) infusion, apparently with heparin co-infusion (FIG. 2b)
# Method: (§1) The animals were anesthetized with ketamine (10 mg/kg) and xylazine (3 mg/Kg) via intraperitoneal injection and placed in a Kopf small animal stereotactic frame. A sagittal incision was made through the skin and a burr hole was placed into the skull with a twist drill. The cannula coordinates were: 0.5 mm anterior to bregma, 2.8 mm to the right of bregma, and 5 mm below the dura.
# (§2) The infusion apparatus consisted of a hydraulic drive serially connected to a syringe pump. This depressed the plunger of one of two 250 μl Hamilton syringes connected by cannulas made from polyetheretherketone (PEEK) tubing (inner diameter 250 μm) and filled with distilled water. One of the 250 μl Hamilton syringes was secured to the stereotactic frame and was contiguous with an infusate-filled 10 or 50 μl Hamilton syringe. Since the system was non-compliant (zero dead space), the compression of the syringe pump of the infusion apparatus led to the measured release of infusate from the 10 or 50 μl Hamilton syringe in a uniform fashion. All infusions were performed with a 32 g cannula at 0.2 μl/min (6).
# The vehicle was 4% mannitol in 10 mM HEPES. […]
# (§3) The brains were cut into 40 μm serial coronal sections on a cryostat. Frozen sections were collected in a series in antifreeze solutions and stored at −70° C. Every 12th section was stained for immunohistochemistry.
# Sections were washed in phosphate buffered saline (PBS) and incubated in 3% H2O2 for 20 minutes to block endogenous peroxidase activity. […] The sections were then incubated for 1 hour in biotinylated anti-mouse IgG secondary antibody (Vector Labs, 1:300). Antibody binding was visualized with streptavidin horseradish peroxidase (Vector Labs, 1:300) and VIP chromogen (Vector Labs). Sections were then coverslipped and examined under light microscopy. Vd was measured using NIH image analysis software.
# The volume of distribution of BSA and the GDNF family of trophic factors was analyzed using a Macintosh-based image analysis system. Images of stained tissue slices were captured by a CCD camera using Adobe Photoshop software. Using NIH Image Analysis software, the area of distribution of infused protein in each tissue section was automatically determined using a threshold of 50% of the maximal stained optical density. The sum of the areas of infusion was used to determine the Vd in each striatum.
# [2] = system: dopamine utilization; test: Dopamine utilization: striatal DOPAC/DA ratio by HPLC 4 days after intrastriatal infusion; assay type: in vivo, rat
# Method: In the study analyzing dopamine metabolism following trophic factor administration, the animals were infused with 5 μg of NTN in 5 μl of vehicle with and without heparin (2.5 units) and sacrificed after 4 days. The vehicle was 4% mannitol in 10 mM HEPES. After completing infusion, the cannula was withdrawn at 1 mm/minute. Following the procedure, the animals used for immunohistochemical analysis were intracardially perfused with 4% paraformaldehyde. Brains were harvested and immersed overnight in 4% paraformaldehyde. The brains were cryoprotected through immersion in graded sucrose solution (20-30%) and frozen at […]. Animals to be used in HPLC studies were euthenized and the brains were harvested and fresh frozen at −70°.
# Animals were sacrificed 4 days after intrastriatal infusion of 5 μl vehicle with 18 μg of heparin, 5 μg of NTN in 5 μl of vehicle or 5 μg of NTN in 5 μl of vehicle with 18 μg of heparin. After decapitation, the brains were rapidly removed and chilled in ice for 4 minutes. They were sliced 1 mm anterior and 2 mm posterior to the injection site using a chilled plastic brain mold. For biochemical studies, frozen punches from the striatum were taken from the injected and uninjected sides for comparison. […] Dopamine (DA), serotonin (5-HT) and their metabolites were measured by HPLC using Ultrasphere C-18 ion pair column, 5μ, 4.6 mm×25 cm (Beckman 235329): a Waters 717 plus autosampler, Waters 510 pump at 0.8 ml/min, and an amperometric electrochemical detector (EiCom CB-100) set at 0.78 V. The mobile phase contained 2-1 deionized water, 2.8 g L-heptanesulfonic acid sodium salt, 0.17 g EDTA, 20 ml triethylamine and 50 ml acetonitrile, pH was adjusted to 2.6 with 13 ml of 85% phosphoric acid. The results were recorded and analyzed with Waters Millenium 2010 Chromatography Manager software. Protein concentration in the tissue pellet was determined using the BCA Protein Assay Kit (Pierce #23225). The results are expressed as nM/hr/mg of protein.
# [3] = Histological examination of infused brains for hemorrhage and tissue damage; assay type: in vivo, rat; conditions: heparin 0.5 units/μl, low volume studies
# Method: Studies were conducted to establish whether CED could be used to distribute trophic factors within the GDNF family over volumes that might be relevant to larger primate brains. High volume infusions (20 μl) of NTN with heparin were able to cover significant volumes of the rat brain (FIG. 3). […] Maximum Vd attained following co-infusion with heparin was 37.3 mm^3, compared to a maximum Vd of 11.0 mm^3 in control animals (FIG. 3). At this infusion volume, in 4 out of 6 animals in which NTN was co-infused with heparin, the striatum was completely stained, as opposed to none of the subjects infused with NTN alone. There was no evidence of hemorrhage (H&E stain) in any of the specimens following the high volume infusions.
# All brains had well demarcated areas of antibody staining following immunohistochemistry. In all brains, there was no evidence of tissue damage, with the exception of the needle track and some non-specific drill-induced cortical lesions. There was no evidence of hemorrhage in any animal at 0 or 4 days after infusion.
# This emphasizes the importance of receptor binding in drug distribution as well.
# [4] = CED high volume (20 μl) NTN intrastriatal infusion, volume of distribution by immunohistochemistry; assay type: in vivo, rat
# Method: as §1, §2
# The vehicle was 4% mannitol in 10 mM HEPES. In the high volume experiment, 50 μg of NTN in 20 μl of vehicle with (n=6) and without (n=6) heparin (71 μg) was delivered into the striatum.
# as §3
# Sections were washed in phosphate buffered saline (PBS) and incubated in 3% H2O2 for 20 minutes to block endogenous peroxidase activity. […] Vd was measured using NIH image analysis software.
# The volume of distribution of BSA and the GDNF family of trophic factors was analyzed using a Macintosh-based image analysis system. […] Using NIH Image Analysis software, the area of distribution of infused protein in each tissue section was automatically determined using a threshold of 50% of the maximal stained optical density. […]
molecule,measurement,setting,value
Artemin,increase in Vd when co-infused with heparin,[1],greater than 10 fold
heparin [reference compound],DOPAC/DA levels compared to the uninjected (left) striatum,"[2]; 5 μl vehicle with 18 μg heparin, 4 days",no change
same,gross or microscopic hemorrhage,[3],no evidence of gross or microscopic hemorrhage
"GDNF (protein, UniProt P39905 78-211, looked up, glial cell line-derived neurotrophic factor, trophic factor provided by Genentech) Glial cell line-derived …: SPDKQMAVLPRRERNRQAAAANPENSRGKGRRGQRGKNRGCVLTAIHLNVTDLGLGYETKEELIFRYCSGSCDAAETTYDKILKNLSRNRRLVSDKVGQACCRPIAFDDDLSFLDDNLVYHILRKHSAKRCGCI",increase in Vd when co-infused with heparin,[1],5 fold
same,Vd/Vi ratio,[1],5.0
same,effect of heparin co-infusion on Vd,"[1]; rat, in vivo",significantly increased
"Neurturin (protein, UniProt Q99748 96-197, looked up, trophic factor of the GDNF ligand family) Neurturin: ARLGARPCGLRELEVRVSELGLGYASDETVLFRYCAGACEAAARVYDLGLRRLRQRRRLRRERVRAQPCCRPTAYEDEVSFLDAHSRYHTVHELSARECACV",DOPAC/DA ratio,"[2]; 5 μg NTN in 5 μl, with or without heparin 18 μg, 4 days after infusion, mean +/- S.E.",146+/−14.2 percentage of the uninjected h
same,DOPAC/DA ratio compared to the vehicle+heparin group,"[2]; 4 days after right striatal infusion, Fisher test",significantly increased
same,animals in which the striatum was completely stained,"[4]; 20 μl infusion, n=6 per group",none
same,Maximum Vd,"[4]; rat, in vivo",11.0 mm^3
same,Vd,"[4]; rat, in vivo",7.7+/−1.1 mm^3
same,increase in Vd when co-infused with heparin,[1],7 fold
same,Vd/Vi ratio,[1],4.6

# Reference: patent publication US20020114780A1, “Methods of increasing distribution of therapeutic agents” (priority 2000, published 2002)
